Laboratory results reported in patent US12269880B2, “LAG3 binding peptides” (Leidos, Inc., priority 2019, dated 2025).
Values joined by “and” are separate entries in the source; they are usually repeats but may differ in a detail not shown here. Equal entries are not always repeated.

Assays:
[1] = biological target: T1, soluble recombinant human LAG3 (Homo sapiens, UniProt P18627); assay: Clonal phage ELISA after phage display bio-panning; format: binding; conditions: for Clonal Phase ELISA uncoated signal: uncoated (background)
T1 construct: soluble recombinant human LAG3
T1 sequence (P18627 23-450 limits assumed): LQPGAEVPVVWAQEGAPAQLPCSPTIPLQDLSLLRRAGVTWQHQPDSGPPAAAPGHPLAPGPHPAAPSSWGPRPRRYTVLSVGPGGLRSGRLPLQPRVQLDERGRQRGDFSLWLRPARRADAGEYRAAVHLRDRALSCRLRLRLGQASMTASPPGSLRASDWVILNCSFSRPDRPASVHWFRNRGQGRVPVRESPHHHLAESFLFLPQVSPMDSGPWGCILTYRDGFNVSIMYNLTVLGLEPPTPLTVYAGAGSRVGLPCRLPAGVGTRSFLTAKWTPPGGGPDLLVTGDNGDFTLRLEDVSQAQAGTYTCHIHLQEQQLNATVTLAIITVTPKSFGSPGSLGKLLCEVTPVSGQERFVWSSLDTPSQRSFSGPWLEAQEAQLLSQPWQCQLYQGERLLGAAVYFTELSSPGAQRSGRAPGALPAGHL
Source text: The TriCo-20™, TriCo-16™, Ph.D.-12™, and Ph.D. C7™ Phage Display Peptide Libraries (Creative Biolabs, 45-1 Ramsey Road, Shirley, NY 11967) were screened by performing several rounds of bio-panning to identify binders of soluble recombinant human LAG3.

LAG3/MHC-II interaction = biological target: T2, LAG3/MHC-II interaction (Homo sapiens, UniProt P18627); assay: HTRF LAG3/MHC-II binding assay (Cisbio)
T2 construct: purchased Cisbio US Inc
T2 sequence (P18627 23-450 limits assumed): T1 sequence (P18627 23-450 limits assumed)
Source text: FIG. 2 is a graph showing the results of a homogeneous time-resolved fluorescence (HTRF) assay for peptide LAG3-11. Reference Ab-LAG3 is an anti-LAG3 antibody. OVA, the ovalbumin (OVA) peptide (ISQAVHAAHAEINEAGR, SEQ ID NO:8). “HTRF ratio” is the emission at 665 nm (acceptor)/emission at 620 nm (donor) multiplied by a factor or 10^4.
A homogeneous time-resolved fluorescence (HTRF) LAG3/MHC-II binding assay (Cisbio US Inc.) was used to measure the interaction between MHC-II and LAG3 in the presence of peptides. In this assay, the interaction between Tag1-LAG3 and Tag2-MHC-II is detected by using anti-Tag1-Terbium (HTRF donor) and anti-Tag2-XL665 (HTRF acceptor). When the donor and acceptor antibodies are brought into close proximity due to LAG3 and MHC-II binding, excitation of the donor antibody triggers fluorescent resonance energy transfer (FRET) towards the acceptor antibody, which in turn emits specifically at 665 nm. This specific signal is directly proportional to the extent of LAG3/MHC-II interaction. Thus, an agent that blocks the interaction between LAG3 and MHC-II will cause a reduction in HTRF ratio.
An anti-human LAG3 antibody (Novoprotein #GMP-A092, Lot 0331158, 500 nM) was tested in the assay at an eleven-point, serially diluted semi-log dose response curve starting at 100 nM and served as a positive control. The ovalbumin peptide was used as a negative control. Peptides were reconstituted at a concentration of 20 mM in […] and tested at an eleven-point dose response curve starting at 100 µM followed by 4-fold dilutions. […]

[2] = LOG [Compound] M tested for peptide −4, single replicates
[3] = LOG [Compound] M tested for peptide −4.60206, single replicates
[4] = LOG [Compound] M tested for peptide −5.20412, single replicates
[5] = LOG [Compound] M tested for peptide −5.80618, single replicates
[6] = LOG [Compound] M tested for peptide −6.40824
[7] = LOG [Compound] M tested for peptide −7.0103, single replicates
[8] = LOG [Compound] M tested for peptide −7.61236, single replicates
[9] = LOG [Compound] M tested for peptide −8.21442, single replicates
[10] = LOG [Compound] M tested for peptide −8.81648, single replicates
[11] = LOG [Compound] M tested for peptide −9.41854, single replicates
[12] = LOG [Compound] M tested for peptide −10.0206
[13] = LOG [Compound] M tested for peptide −10.6227

Sequence | Clonal Phase ELISA coated signal [1] | Clonal Phase ELISA uncoated signal [1] | HTRF ratio (LAG3/MHC-II interaction; [2]) | HTRF ratio (LAG3/MHC-II interaction; [3]) | HTRF ratio (LAG3/MHC-II interaction; [4]) | HTRF ratio (LAG3/MHC-II interaction; [5]) | HTRF ratio (LAG3/MHC-II interaction; [6]) | HTRF ratio (LAG3/MHC-II interaction; [7]) | HTRF ratio (LAG3/MHC-II interaction; [8]) | HTRF ratio (LAG3/MHC-II interaction; [9]) | HTRF ratio (LAG3/MHC-II interaction; [10]) | HTRF ratio (LAG3/MHC-II interaction; [11]) | HTRF ratio (LAG3/MHC-II interaction; [12]) | HTRF ratio (LAG3/MHC-II interaction; [13])
ACGPGSFGDCGGG (LAG3-54 peptide) | 0.417 | 0.103 | 2283 and 4122 and 3912 | 7055 and 6709 and 6833 | 8691 and 8561 and 8512 | 9156 and 9205 and 9142 | 9161 and 9048 and 8773 | 9105 and 9141 and 9004 | 8674 and 9031 and 9075 | 8996 and 8645 and 8867 | 8130 and 8918 and 8630 | 8942 and 8930 and 8755 | 8344 and 9203 and 8748 | 9100 and 9262 and 8921
DWNFQQWDWKKHNHLDSHVV (LAG3-42 peptide) | 0.378 | 0.084 | 7234 and 7037 and 7142 | 8389 and 8097 and 8045 | 8629 and 8765 and 8733 | 9281 and 8905 and 8572 | 9189 and 8945 and 8784 | 9432 and 8649 and 9072 | 9209 and 8787 and 9109 | 9407 and 8205 and 9247 | 9579 and 9134 and 8703 | 9137 and 8550 and 8958 | 8860 and 8937 and 8907 | 9016 and 8914 and 9210
FYSPNHEEYHDWNVDSSVNE (LAG3-48 peptide) | 0.227 | 0.094 | 3507 and 2809 and 3028 | 5662 and 5088 and 5724 | 8301 and 8213 and 8200 | 8663 and 9082 and 9045 | 9264 and 9194 and 9135 | 8727 and 9103 and 9142 | 8936 and 9357 and 9297 | 9082 and 9139 and 9095 | 8708 and 9153 and 8757 | 8564 and 8922 and 8442 | 8765 and 9097 and 8602 | 8663 and 8904 and 9303
HESGSVPHPWQFFTHYVS (LAG3-60 peptide) | 0.330 | 0.091 | 2986 and 3079 | 5934 and 5959 and 5991 | 8233 and 7988 and 7918 | 8525 and 8398 and 8342 | 8614 and 8929 and 9290 | 9142 and 8745 and 8892 | 8987 and 8983 and 9320 | 9275 and 8931 and 9366 | 9059 and 9248 and 8887 | 8772 and 8594 and 9169 | 8924 and 8349 and 8904 | 8795 and 9240 and 9350
ISQAVHAAHAEINEAGR (listed as Gallus gallus) [OVA peptide, reference compound] |  |  | 7154 and 8492 and 8909 | 8449 and 8472 and 8683 | 9015 and 8616 and 8579 | 9180 and 8833 and 9374 | 9189 and 8634 and 9280 | 8380 and 8654 and 8970 | 9015 and 8776 and 8568 | 9219 and 8624 and 8987 | 8684 and 8724 and 8639 | 8625 and 8396 and 8788 | 8356 and 8986 and 8457 | 8633 and 9086 and 8892
KVWQVPQDTQHWLSPNFYSV (LAG3-51 peptide) | 0.234 | 0.076 | 3058 and 2773 and 2875 | 6649 and 6521 and 6468 | 7908 and 8071 and 8322 | 8723 and 8946 and 8748 | 9265 and 8583 and 8662 | 8098 and 9193 and 9017 | 8762 and 9360 and 9173 | 8950 and 8608 and 8357 | 8834 and 8187 and 8957 | 8867 and 8809 and 8630 | 8784 and 8779 and 8696 | 9082 and 9104 and 9298
